In patent US20230374484:

T1: activated clotting factor VIII (fVIIIa), P00451
T1 chain: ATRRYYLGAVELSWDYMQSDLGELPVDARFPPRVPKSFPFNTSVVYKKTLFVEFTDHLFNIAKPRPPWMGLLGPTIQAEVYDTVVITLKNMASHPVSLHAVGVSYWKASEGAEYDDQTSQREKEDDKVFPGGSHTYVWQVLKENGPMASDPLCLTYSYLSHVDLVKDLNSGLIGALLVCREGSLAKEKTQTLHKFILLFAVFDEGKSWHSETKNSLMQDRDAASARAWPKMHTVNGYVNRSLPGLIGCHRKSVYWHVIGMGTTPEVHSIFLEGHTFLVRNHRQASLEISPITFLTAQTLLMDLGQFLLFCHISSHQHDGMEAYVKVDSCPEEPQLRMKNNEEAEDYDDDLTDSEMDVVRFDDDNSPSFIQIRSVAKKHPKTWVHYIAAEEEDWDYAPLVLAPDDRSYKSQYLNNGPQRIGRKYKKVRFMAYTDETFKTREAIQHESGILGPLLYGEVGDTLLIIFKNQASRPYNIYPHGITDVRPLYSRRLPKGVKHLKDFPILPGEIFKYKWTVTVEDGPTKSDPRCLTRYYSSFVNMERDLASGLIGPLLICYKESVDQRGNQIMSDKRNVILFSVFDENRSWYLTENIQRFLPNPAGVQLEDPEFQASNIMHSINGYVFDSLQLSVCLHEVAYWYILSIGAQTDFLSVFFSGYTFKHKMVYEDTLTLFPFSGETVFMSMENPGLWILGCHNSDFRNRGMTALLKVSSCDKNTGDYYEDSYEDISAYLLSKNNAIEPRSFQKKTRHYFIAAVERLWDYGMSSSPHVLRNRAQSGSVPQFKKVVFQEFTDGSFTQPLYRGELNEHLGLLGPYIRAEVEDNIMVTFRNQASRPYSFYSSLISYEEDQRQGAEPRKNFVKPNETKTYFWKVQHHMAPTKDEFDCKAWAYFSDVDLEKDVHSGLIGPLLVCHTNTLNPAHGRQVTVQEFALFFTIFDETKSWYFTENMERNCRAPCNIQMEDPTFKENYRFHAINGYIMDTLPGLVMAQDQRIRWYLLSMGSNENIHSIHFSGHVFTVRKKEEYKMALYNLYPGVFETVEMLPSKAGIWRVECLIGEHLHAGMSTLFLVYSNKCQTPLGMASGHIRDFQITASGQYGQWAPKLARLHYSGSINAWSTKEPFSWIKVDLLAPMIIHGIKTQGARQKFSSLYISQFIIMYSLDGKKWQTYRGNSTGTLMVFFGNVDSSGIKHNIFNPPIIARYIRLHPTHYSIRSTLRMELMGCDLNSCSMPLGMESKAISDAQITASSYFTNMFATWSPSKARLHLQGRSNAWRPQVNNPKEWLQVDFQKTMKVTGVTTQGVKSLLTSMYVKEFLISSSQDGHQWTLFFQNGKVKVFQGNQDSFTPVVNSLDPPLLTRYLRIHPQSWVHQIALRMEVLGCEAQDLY


Target: T1, activated clotting factor VIII …

Protein	fIX activity (one-stage APTT-dependent coagulation assay)
An96 fIX (ancestral sequence 96 factor IX) (protein) YNSGKLEEFVRGNLERECIEEKCSFEEAREVFENTEKTTEFWKQYVDGDQCESNPCLNGGSCKDDINSYECWCRFGFEGKNCELDATCSIKNGRCKQFCKKSADNKVVCSCTEGYRLAEDQKSCEPAVPFPCGRVSVSHTSKKLTRAETIFSNMDYENSTEAETILDNVTQSTQSFNDFTRVVGGENAKPGQFPWQVLLNGKIDAFCGGSIINEKWVVTAAHCIEPGVKITVVAGEHNIEKTEPTEQKRNVIRVIPHHNYNATINKYSHDIALLELDKPLTLNSYVTPICIANREYTNIFLKFGSGYVSGWGRVFNRGRSASILQYLRVPLVDRATCLRSTKFTIYNNMFCAGYHEGGKDSCQGDSGGPHVTEVEGTSFLTGIISWGEECAMKGKYGIYTKVSRYVNWIKEKTKLT	exhibits higher fIX activity
fIX optimized sequence Beta (no Padua) (protein) YNSGKLEEFVQGNLERECMEEKCSFEEAREVFENTERTTEFWKQYVDGDQCESNPCLNGGSCKDDINSYECWCPFGFEGKNCELDATCNIKNGRCEQFCKNSADNKVVCSCTEGYRLAENQKSCEPAVPFPCGRVSVSQTSKLTRAETVFPDVDYVNSTEAETILDNITQSTQSFNDFTRVVGGEDAKPGQFPWQVVLNGKVDAFCGGSIVNEKWIVTAAHCVETGVKITVVAGEHNIEETEHTEQKRNVIRIIPHHNYNAAINKYNHDIALLELDEPLVLNSYVTPICIANKEYTNIFLKFGSGYVSGWGRVFHRGRSASVLQYLRVPLVDRATCLRSTKFTIYNNMFCAGFHEGGRDSCQGDSGGPHVTEVEGTSFLTGIISWGEECAMKGKYGIYTKVSRYVNWIKEKTKLT	exhibits higher fIX activity
fIX optimized sequence Gamma (with Padua) (protein) YNSGKLEEFVQGNLERECMEEKCSFEEAREVFENTERTTEFWKQYVDGDQCESNPCLNGGSCKDDINSYECWCPFGFEGKNCELDATCNIKNGRCEQFCKNSADNKVVCSCTEGYRLAENQKSCEPAVPFPCGRVSVSQTSKLTRAETVFPDVDYVNSTEAETILDNITQSTQSFNDFTRVVGGEDAKPGQFPWQVVLNGKVDAFCGGSIVNEKWIVTAAHCVETGVKITVVAGEHNIEETEHTEQKRNVIRIIPHHNYNAAINKYNHDIALLELDKPLVLNSYVTPICIANKEYTNIFLKFGSGYVSGWGRVFHRGRSASVLQYLRVPLVDRATCLLSTKFTIYNNMFCAGFHEGGRDSCQGDSGGPHVTEVEGTSFLTGIISWGEECAMKGKYGIYTKVSRYVNWIKEKTKLT	exhibits higher fIX activity
fIX optimized sequence Beta (with Padua) (protein) YNSGKLEEFVQGNLERECMEEKCSFEEAREVFENTERTTEFWKQYVDGDQCESNPCLNGGSCKDDINSYECWCPFGFEGKNCELDATCNIKNGRCEQFCKNSADNKVVCSCTEGYRLAENQKSCEPAVPFPCGRVSVSQTSKLTRAETVFPDVDYVNSTEAETILDNITQSTQSFNDFTRVVGGEDAKPGQFPWQVVLNGKVDAFCGGSIVNEKWIVTAAHCVETGVKITVVAGEHNIEETEHTEQKRNVIRIIPHHNYNAAINKYNHDIALLELDEPLVLNSYVTPICIANKEYTNIFLKFGSGYVSGWGRVFHRGRSASVLQYLRVPLVDRATCLLSTKFTIYNNMFCAGFHEGGRDSCQGDSGGPHVTEVEGTSFLTGIISWGEECAMKGKYGIYTKVSRYVNWIKEKTKLT	exhibits higher fIX activity
fIX optimized sequence Delta (no Padua) (protein) YNSGKLEEFVQGNLERECMEEKCSFEEAREVFENTERTTEFWKQYVDGDQCESNPCLNGGSCKDDINSYECWCPFGFEGKNCELDATCNIKNGRCEQFCKNSADNKVVCSCTEGYRLAENQKSCEPAVPFPCGRVSVSQTSKLTRAETVFPDVDYVNSTEAETILDNITQSTQSFNDFTRVVGGEDAKPGQFPWQVVLNGKVDAFCGGSIVNEKWIVTAAHCVETGVKITVVAGEHNIEETEHTEQKRNVIRIIPHHNYNAAINKYNHDIALLELDKPLTLNSYVTPICIANREYTNIFLKFGSGYVSGWGRVFHRGRSASVLQYLRVPLVDRATCLRSTKFTIYNNMFCAGFHEGGRDSCQGDSGGPHVTEVEGTSFLTGIISWGEECAMKGKYGIYTKVSRYVNWIKEKTKLT	exhibits higher fIX activity
fIX optimized sequence Gamma (no Padua) (protein) YNSGKLEEFVQGNLERECMEEKCSFEEAREVFENTERTTEFWKQYVDGDQCESNPCLNGGSCKDDINSYECWCPFGFEGKNCELDATCNIKNGRCEQFCKNSADNKVVCSCTEGYRLAENQKSCEPAVPFPCGRVSVSQTSKLTRAETVFPDVDYVNSTEAETILDNITQSTQSFNDFTRVVGGEDAKPGQFPWQVVLNGKVDAFCGGSIVNEKWIVTAAHCVETGVKITVVAGEHNIEETEHTEQKRNVIRIIPHHNYNAAINKYNHDIALLELDKPLVLNSYVTPICIANKEYTNIFLKFGSGYVSGWGRVFHRGRSASVLQYLRVPLVDRATCLRSTKFTIYNNMFCAGFHEGGRDSCQGDSGGPHVTEVEGTSFLTGIISWGEECAMKGKYGIYTKVSRYVNWIKEKTKLT	exhibits higher fIX activity
